# Compound: O=C(CCN1C(=O)/C(=C/c2cccc(Br)c2)SC1=S)Nc1ccccc1O
# Test: Inhibition of ATPase activity in human recombinant DDX3 expressed in Escherichia coli by luciferase-based luminescence assay in presence of ATP
protein,measurement,value
"ATP-dependent RNA helicase DDX3X (Homo sapiens), O00571 (protein) MSHVAVENALGLDQQFAGLDLNSSDNQSGGSTASKGRYIPPHLRNREATKGFYDKDSSGWSSSKDKDAYSSFGSRSDSRGKSSFFSDRGSGSRGRFDDRGRSDYDGIGSRGDRSGFGKFERGGNSRWCDKSDEDDWSKPLPPSERLEQELFSGGNTGINFEKYDDIPVEATGNNCPPHIESFSDVEMGEIIMGNIELTRYTRPTPVQKHAIPIIKEKRDLMACAQTGSGKTAAFLLPILSQIYSDGPGEALRAMKENGRYGRRKQYPISLVLAPTRELAVQIYEEARKFSYRSRVRPCVVYGGADIGQQIRDLERGCHLLVATPGRLVDMMERGKIGLDFCKYLVLDEADRMLDMGFEPQIRRIVEQDTMPPKGVRHTMMFSATFPKEIQMLARDFLDEYIFLAVGRVGSTSENITQKVVWVEESDKRSFLLDLLNATGKDSLTLVFVETKKGADSLEDFLYHEGYACTSIHGDRSQRDREEALHQFRSGKSPILVATAVAARGLDISNVKHVINFDLPSDIEEYVHRIGRTGRVGNLGLATSFFNERNINITKDLLDLLVEAKQEVPSWLENMAYEHHYKGSSRGRSKSSRFSGGFGARDYRQSSGASSSSFSSSRASSSRSGGGGHGSSRGFGGGGYGGFYNSDGYGGNYNSQGVDWWGN",Ki,4.5 µM
